Results published in the supplement of paper PMC10065799, “High-throughput profiling of sequence recognition by tyrosine kinases and SH2 domains using bacterial peptide display” (eLife, 2023).

The sequences below were run against EPHB2 (UniProt P29323) (assay: phosphorylation enrichment, bacterial display (enrichment ratio); higher = better substrate or ligand; peptides without Tyr show the background).
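Note: 11-residue human phosphosite peptides and single-mutation variants displayed on the E. coli surface, counted by deep sequencing, each peptide's frequency after selection divided by its frequency in the unselected input library; frequency after pTyr selection over input frequency; kinase dosed for 20-30% of maximal phosphorylation in three min.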

Sequence of EPHB2 (P29323 whole entry, looked up): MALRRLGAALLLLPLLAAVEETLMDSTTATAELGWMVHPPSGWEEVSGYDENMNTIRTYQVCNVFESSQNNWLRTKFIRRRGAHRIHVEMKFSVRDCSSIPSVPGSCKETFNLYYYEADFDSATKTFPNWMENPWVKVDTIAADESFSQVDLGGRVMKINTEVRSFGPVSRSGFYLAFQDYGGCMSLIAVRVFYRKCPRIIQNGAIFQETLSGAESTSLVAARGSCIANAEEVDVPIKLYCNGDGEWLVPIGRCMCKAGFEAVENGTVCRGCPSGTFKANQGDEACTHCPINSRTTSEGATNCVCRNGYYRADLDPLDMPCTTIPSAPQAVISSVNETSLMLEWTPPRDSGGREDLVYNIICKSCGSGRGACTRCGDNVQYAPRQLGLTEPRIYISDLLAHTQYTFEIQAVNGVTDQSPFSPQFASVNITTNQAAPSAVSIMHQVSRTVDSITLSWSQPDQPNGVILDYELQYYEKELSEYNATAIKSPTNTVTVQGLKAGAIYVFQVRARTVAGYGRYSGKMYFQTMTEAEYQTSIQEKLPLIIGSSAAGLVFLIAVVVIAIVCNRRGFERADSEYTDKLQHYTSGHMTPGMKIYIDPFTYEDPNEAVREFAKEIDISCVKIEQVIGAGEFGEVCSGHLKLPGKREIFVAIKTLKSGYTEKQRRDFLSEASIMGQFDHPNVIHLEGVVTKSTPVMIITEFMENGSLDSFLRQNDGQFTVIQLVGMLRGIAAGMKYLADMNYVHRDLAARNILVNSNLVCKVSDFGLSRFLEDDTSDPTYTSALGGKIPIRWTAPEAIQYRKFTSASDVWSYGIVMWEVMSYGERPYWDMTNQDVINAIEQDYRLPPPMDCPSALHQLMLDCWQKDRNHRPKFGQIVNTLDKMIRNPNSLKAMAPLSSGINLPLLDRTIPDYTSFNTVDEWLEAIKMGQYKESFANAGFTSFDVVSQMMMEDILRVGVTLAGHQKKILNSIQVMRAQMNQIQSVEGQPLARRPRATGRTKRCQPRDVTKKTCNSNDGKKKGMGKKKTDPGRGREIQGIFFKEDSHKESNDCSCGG

Sequence	phosphorylation enrichment
MEIHAYRKLLE [LMNA_Y376]	0.67
IVRSPYEDLED [VHL_Y185_L184P]	0.682
EVRAQYEEIAQ [KRT76_Y361]	0.641
CTTIHYNFMCF [TP53_Y234_N239Y_YF]	0.522
RHPFFYAPELL [ALB_Y174_YF]	1.04
LIFTNYEAGKD [GSTP1_Y112_YF]	0.571
QTEAQYRFIFM [PTPN11_Y511_YF]	0.467
SLALFYRKVYH [RBL1_Y792]	0.643
TSEASYFKSLN [NGEF_Y288_YF]	0.599
SVTCTYPPALN [TP53_Y126_S127P]	0.578
ILNANYMAKRL [GLDC_Y839]	0.363
VVKLTYNENDN [CAMKK2_Y183_A182T]	0.545
LIFVSYDDWDY [GRIN2A_Y281_S278F]	2.52
KQELVYTNKKL [OPTN_Y356]	0.561
VTPSEYLEIVR [TMEM130_Y412_E407V]	0.618
ISDNACQYMLT [MYH7_Y162_Y162C]	0.583
ETVHRYVELLD [AP1S3_Y87_I83T]	0.654

Sequence	phosphorylation enrichment
RLLRGYDQLAY [HLA-C_Y137_S140L]	0.67
ARVDTYCRHNY [HLA-DRB1_Y107_A103R]	0.583
HHIDFYKKTTN [FGFR1_Y654_YF]	0.418
HILFRYPKEFQ [IDS_Y234_P231L]	0.797
KLSCSYSHLSA [C4BPA_Y470_W473L]	0.588
HAVYVCDICHV [TWNK_Y508_Y508C]	2.06
ISIFRYAKGQP [MPZ_Y82_H81R]	0.577
RHPYFFAPELL [ALB_Y174_Y174F]	0.613
GCRSKSVGLWG [KCNQ1_Y184_Y184S]	0.488
EDKFMYLEFPQ [PTEN_Y240_F241L]	0.756
PLQKTYNYNML [SLC4A1_Y553_V557M]	1.03
LEEFQYIGELQ [MSH2_Y856_S860L]	0.788
HVKHNYECLVF [XRCC5_Y416_I412V_YF]	1.16
RFQKLYLDRNL [IGFALS_Y248_L244F]	0.509
MDDPRYGVCPL [ZNF100_Y6_M8V]	0.632
ETAENYLGYTA [HSPA9_Y181_H184Y]	0.684

The sequences below were run against FGFR1 (UniProt P11362) in the same assay as above.
Sequence of FGFR1 (P11362 whole entry, looked up): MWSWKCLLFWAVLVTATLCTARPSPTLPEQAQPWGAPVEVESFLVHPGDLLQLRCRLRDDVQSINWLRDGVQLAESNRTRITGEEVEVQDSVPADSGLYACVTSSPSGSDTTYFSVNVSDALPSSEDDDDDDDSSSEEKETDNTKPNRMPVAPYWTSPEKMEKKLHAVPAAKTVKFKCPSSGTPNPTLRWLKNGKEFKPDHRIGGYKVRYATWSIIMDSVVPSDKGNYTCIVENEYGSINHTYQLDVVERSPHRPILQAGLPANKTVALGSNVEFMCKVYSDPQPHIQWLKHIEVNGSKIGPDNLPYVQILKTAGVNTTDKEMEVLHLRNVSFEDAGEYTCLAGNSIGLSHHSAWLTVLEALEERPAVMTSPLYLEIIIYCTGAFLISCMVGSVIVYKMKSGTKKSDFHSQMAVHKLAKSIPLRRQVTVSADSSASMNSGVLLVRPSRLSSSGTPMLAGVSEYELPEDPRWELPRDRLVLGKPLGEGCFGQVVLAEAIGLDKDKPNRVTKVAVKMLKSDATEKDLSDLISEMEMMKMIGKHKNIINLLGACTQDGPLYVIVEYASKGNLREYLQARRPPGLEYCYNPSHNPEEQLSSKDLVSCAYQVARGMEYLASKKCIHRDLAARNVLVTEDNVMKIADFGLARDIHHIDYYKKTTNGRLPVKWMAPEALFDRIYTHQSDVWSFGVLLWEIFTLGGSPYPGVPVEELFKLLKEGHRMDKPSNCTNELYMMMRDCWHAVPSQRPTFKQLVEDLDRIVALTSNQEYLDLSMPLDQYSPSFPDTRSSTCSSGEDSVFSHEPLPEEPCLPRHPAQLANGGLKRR

Sequence	phosphorylation enrichment
MEIHAYRKLLE [LMNA_Y376]	0.443
IVRSPYEDLED [VHL_Y185_L184P]	0.571
EVRAQYEEIAQ [KRT76_Y361]	0.611
CTTIHYNFMCF [TP53_Y234_N239Y_YF]	0.621
RHPFFYAPELL [ALB_Y174_YF]	1.25
LIFTNYEAGKD [GSTP1_Y112_YF]	0.824
QTEAQYRFIFM [PTPN11_Y511_YF]	0.893
SLALFYRKVYH [RBL1_Y792]	0.575
TSEASYFKSLN [NGEF_Y288_YF]	0.563
SVTCTYPPALN [TP53_Y126_S127P]	0.502
ILNANYMAKRL [GLDC_Y839]	0.368
VVKLTYNENDN [CAMKK2_Y183_A182T]	0.618
LIFVSYDDWDY [GRIN2A_Y281_S278F]	0.95
KQELVYTNKKL [OPTN_Y356]	0.47
VTPSEYLEIVR [TMEM130_Y412_E407V]	0.557
ISDNACQYMLT [MYH7_Y162_Y162C]	0.623
ETVHRYVELLD [AP1S3_Y87_I83T]	0.591

Sequence	phosphorylation enrichment
RLLRGYDQLAY [HLA-C_Y137_S140L]	0.65
ARVDTYCRHNY [HLA-DRB1_Y107_A103R]	0.582
HHIDFYKKTTN [FGFR1_Y654_YF]	0.629
HILFRYPKEFQ [IDS_Y234_P231L]	0.866
KLSCSYSHLSA [C4BPA_Y470_W473L]	0.574
HAVYVCDICHV [TWNK_Y508_Y508C]	0.628
ISIFRYAKGQP [MPZ_Y82_H81R]	0.486
RHPYFFAPELL [ALB_Y174_Y174F]	16.3
GCRSKSVGLWG [KCNQ1_Y184_Y184S]	0.429
EDKFMYLEFPQ [PTEN_Y240_F241L]	2.44
PLQKTYNYNML [SLC4A1_Y553_V557M]	0.589
LEEFQYIGELQ [MSH2_Y856_S860L]	0.793
HVKHNYECLVF [XRCC5_Y416_I412V_YF]	0.558
RFQKLYLDRNL [IGFALS_Y248_L244F]	0.636
MDDPRYGVCPL [ZNF100_Y6_M8V]	0.491
ETAENYLGYTA [HSPA9_Y181_H184Y]	0.748
